The record followed here is the nanobody polyreactivity screen of Harvey et al. (2022).

A short description of the data set: yeast display, Sf9 membrane polyspecificity reagent, FACS + sequencing; frameworks hold sequencing errors. The method, boiled down: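 Sorting gates, low and high (top ~1%), were placed on anti-HA fluorescence to track expression and on streptavidin fluorescence to track reagent binding. A clone's polyreactivity label is taken from the gate it came out of. The reagent was 10% biotinylated, detergent-solubilized Sf9 membrane, applied for 1 hour at 4 °C to galactose-induced yeast display cells.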
Take “QLQLQESGRGLVQAGGSLRLSCAASGNIVDADIMGWYRQAPGKERELVASITDGGSTNYADSVKGRFTISRDNAKNTVYLQMNSLKTEDTAVYYCAAIAYPVIPTYFDYDSEYFYWGQGTQVTVSS”: the “polyreactivity (PSR sort gate)” value was “low polyreactivity”.

Consider “QLQLVDSGGGLVQAGGSLRLSCAASGSIFAQYAMGWYRQAPEKERELVADISGDGSTYYADSVKGRFTISRDNAKNTVYLQMNSLKPEDTAVYYCADRKLYGSPEHGYWGQGTQVTVSS”, for which the “polyreactivity (PSR sort gate)” value is listed as “high polyreactivity”.

Regarding “QLQLVESAGGLVQAGGSLRLRCAASGSTFSSYAMGWYRQAPWKERELVADITSSGGSTYYADSVKGRFTISRDNAKNSVYLQMNSLTPEDTAVYYCAADDVIFWLYYYWGQGTQVTVSS”, the “polyreactivity (PSR sort gate)” value is listed as “low polyreactivity”.

“QLQLVESCGGLVQAGGSLRLSCAASGSILLNNAMGWYRQAPGKERELVAAISLSGGGSTYYADSVKGRFTLSRDNAKNTVYLQMNSLIPEDTAVYYCNADDPYLYYDSYDYWGQGTQVTVSS”: the “polyreactivity (PSR sort gate)” value is given as “low polyreactivity”.

As for “QLQLVESGAGLVQAGGSLRLSCAASGNIFRKNAMGRSRQAPGKERELVAAISRRGGNSYYADSVKGRFTISRDNAKNTVYLQMNSLKPEDTAVYYCAADWSPTAASDYWGQGTQVTVSS”, the “polyreactivity (PSR sort gate)” value is “high polyreactivity”.

In the case of “QLQLVESGGGFVQAGGSLRLSCAASGSTFQIYTMGWYRQAPGKERELVAAITNGGGSTYYADSVKGRFTISRDKANNTVYLQMNSLKPEDTAVYYCAAEQRYPLIILYDYWGQGTQVTVSS”, the “polyreactivity (PSR sort gate)” value is “low polyreactivity”.

On to “QLQLVESGGGFVQAGGSLRLSCDASGSTFGNYTMGWYRQAPGKERELVAAISFSGGRTYYADSVKGRFTISRDNAKNTVYLQMNSLKPADTAVYYCAKRSYGYSAFIYNYWGQGTQVTVSS”, for which the “polyreactivity (PSR sort gate)” value is “high polyreactivity”.

Turning to “QLQLVESGGGLVLAAGSLRLSCAASGYTFKSYAMGCSRQAPGKERELVAAISNGGNTYYADSVKGRFTISRDNAKNTVYIQMNSLKPEDTAVYYCAARYGYYYSRYDHWGQGTQVTVSS”, the “polyreactivity (PSR sort gate)” value is reported as “low polyreactivity”.

With “QLQLVESGGGLVPAGGSLRLSCASSGSIFKTYAMGWSRQAPGKDRELVAAIRGSGGSTYYADSVKGRFTIARDYAKNTVYLQMKSLKPEDTAFYYCARVGTKYRTNFFNGNDDWGQGTQVTVSS”, the “polyreactivity (PSR sort gate)” value is listed as “low polyreactivity”.

Turning to “QLQLVESGGGLVQAGCSLRLICAASGFTFYRNAMGWYRQAPGKEREFVAAISSSGGGTYYADSVKGRFTISRDNAKNTVYLQMNSLKPDDTAVYYCAAKYPQKTTVNSYGNSFYYWGQGTQVTVSS”, the “polyreactivity (PSR sort gate)” value is “high polyreactivity”.

Take “QLQLVESGGGLVQAGGSIRLSCAASGSIFYRYAKGWNRQAPGKESELVAAISSRGGSKYYADSVKARFTISRDNAKNTVYLQMNSLKPEDTAVYYCAARSGGSGGTYGYWGQGPQVTVSS”: the “polyreactivity (PSR sort gate)” value is recorded as “high polyreactivity”.

As for “QLQLVESGGGLVQAGGSLLLSCAASGITFPANAMGWYRQAPGKERELVAAITGRGGRTYYADSVKGRFTISRYYAKNTVYLQMISLKPEDTAVYYCNAYLWRVTQNYDYWGQGTQVTVSS”, the “polyreactivity (PSR sort gate)” value is recorded as “high polyreactivity”.

For “QLQLVESGGGLVQAGGSLRITCAASGSTFLTYSMGWYRQAPGKESELVAGISYSTGSTYYADSVKGRFTISRDNAKYTVYLQMNSLKPEDTAVYYCAADEWDCLWYYYYFNYEYWGQGTQVTVSS”, the “polyreactivity (PSR sort gate)” value was “low polyreactivity”.

For the sequence “QLQLVESGGGLVQAGGSLRLISAASGLTFADYAMGWYRQAPGKERELVAAISSNGGSTNYADSVKGRFTISRDNAKNTVYLQMNSLKPEDTAVYYCAARPRNNARFWDYNYWGQGTQVTVSS”, the “polyreactivity (PSR sort gate)” value is “high polyreactivity”.

Consider “QLQLVESGGGLVQAGGSLRLSCAASGFIFDSYAMGWYRQAPGKERELVAAISWSGSSTYYADSVKGRFTISRDNAKNTVFLQMNSLKPEDTAVYYCGALVYPYWGGSMYYWGQGTQVTVSS”, for which the “polyreactivity (PSR sort gate)” value is recorded as “high polyreactivity”.

Regarding “QLQLVESGGGLVQAGGSLRLSCAASGFTFWGYTIGWYRPAPGKERQLVAGITLSGGSTYYADSVKGRFTISRDNAKNTVYLQMNSLKPEDTAVYYCAAKPYQVSSYDFSLRDYWGQGTQVTVSS”, the “polyreactivity (PSR sort gate)” value is reported as “low polyreactivity”.

For “QLQLVESGGGLVQAGGSLRLSCAASGLIFIYYAMGWYRQAPGKERELVASITNSGGSTYYADSVKGRFTISRDNAKNTVYLQMNSLKPEDTALYYCAADYKTIVQRYGYYYWGQGTQVTVSS”, the “polyreactivity (PSR sort gate)” value is “low polyreactivity”.

As for “QLQLVESGGGLVQAGGSLRLSCAASGLTFNTYAMGWSRQAPAKERELVAAITKGGGRTYYADSVKGRFTISRDNAKNTVYLQMNSLKPEDTAVYYCAVVSWYRYSRYENDYWGQGTQVTVSS”, the “polyreactivity (PSR sort gate)” value was “high polyreactivity”.

Consider “QLQLVESGGGLVQAGGSLRLSCAASGLTFSYYAMGWYRQAPGKETELVSAISRGGTTNYADSVKGRFTISRDNAKNTVYLQMNSLKPEDTAVYYCAASYFRRGFYSIYEYDYWGQGTQVTVSS”, for which the “polyreactivity (PSR sort gate)” value is reported as “low polyreactivity”.

As to “QLQLVESGGGLVQAGGSLRLSCAASGRIFGVYVMGLYRQAPGKERELVAAISWSGSHTYYADSVKGRFTISRDNAKNTVYLQMNSLKPEDTAVYYCNADSYPDYTGPGLDWYDYWGQGTQVTVSS”, the “polyreactivity (PSR sort gate)” value is “low polyreactivity”.

Turning to “QLQLVESGGGLVQAGGSLRLSCAASGRTFGYNVMGWYRQAPGKERELVAAISSSGGSTYYADSVKGRFTISRDNAKNTVYLQMNSLKPEDTAVYYCAAQVRYYQSGPMYYWGQGTQVTVSS”, the “polyreactivity (PSR sort gate)” value was “high polyreactivity”.

Take “QLQLVESGGGLVQAGGSLRLSCAASGRTFYRNGKGWYIQAPGKERELVATISSGGITNYADSVKGRFTISRDNAKNTVYLQMNSLKPEDTAVYYCNAKKAYYGRGMNYWGQGTQVTVSS”: the “polyreactivity (PSR sort gate)” value was “low polyreactivity”.

As to “QLQLVESGGGLVQAGGSLRLSCAASGRTFYSYAKGWSRPAPGTDRQFVAAISVRGVITYYADSVKGRFTISRDNAKNTVYLQMNSLKPEDTAVDYCAADWSGYYTFDYWGQGTQVTVSS”, the “polyreactivity (PSR sort gate)” value is listed as “low polyreactivity”.

For “QLQLVESGGGLVQAGGSLRLSCAASGSIFFNYTMGWYRQAPGNERELVAAINSSGGRTNYADSVKGRFTISRDNAKNTVYLQMNSLKPEDTAVYYCAAGQSRYRELEYWGQGTQVTVSS”, the “polyreactivity (PSR sort gate)” value is reported as “low polyreactivity”.

In the case of “QLQLVESGGGLVQAGGSLRLSCAASGSIFNRYAMGSYRQAPGKERELVAAITRSAARTYYADSVKGRFTISRDNAKTTVYLQMNRLKPEDTAVYYCKAATTPYGYSYYYLGQGTQVTVSS”, the “polyreactivity (PSR sort gate)” value is listed as “high polyreactivity”.

For “QLQLVESGGGLVQAGGSLRLSCAASGSIFRTNVMGWYRQAPGKERELVAAISRRGGSTYYADSVKGRFTISRDNAKNTVYLQMISLKPEDTAVYYCAASSSAYRDDYWGQGTQVTVSS”, the “polyreactivity (PSR sort gate)” value was “high polyreactivity”.

Consider “QLQLVESGGGLVQAGGSLRLSCAASGSIFVTYAMGWYSQAPGKEMELVAAINYSGGSTYYADSVTGRFTISRDNAKNTVYLQMNSLKPEATAVYYCAAAVAVFSFDYPHYYEYEYWGQGTQVTVSS”, for which the “polyreactivity (PSR sort gate)” value is “low polyreactivity”.

With “QLQLVESGGGLVQAGGSLRLSCAASGSIFYPYAMGWYRQAPGKERELVATINEDGGSTYYADSVKGRFTISRDNAKNTVYLQMNSLKQEDTAVYYCNTDHFEDYHTDFWSDYEYWGHGTQVTVSS”, the “polyreactivity (PSR sort gate)” value was “low polyreactivity”.

“QLQLVESGGGLVQAGGSLRLSCAASGSISAVNTMGWYRQAPRKERELVATISYSTASTYYADSVKGRFTISRDNAKITVYLQINSRKPEDTAFYYCNKDGRRYAYNSEYDHWGQGTQVTVSS”: the “polyreactivity (PSR sort gate)” value was “low polyreactivity”.

As for “QLQLVESGGGLVQAGGSLRLSCAASGSTFPEYVMGWYRQAPAKERELVAAITRRGGRTYYADSVKGRFTISRDNAKNTVYFQMNSLKPEDTAVYYCAAKSAVVVGMDSWGQGTQVTVSS”, the “polyreactivity (PSR sort gate)” value was “high polyreactivity”.
